Settings in all cases: chain copies: 2
In data set [1] the target is T1, IL-17 (Homo sapiens, UniProt Q16552 Q16552:24-155).
T1 sequence: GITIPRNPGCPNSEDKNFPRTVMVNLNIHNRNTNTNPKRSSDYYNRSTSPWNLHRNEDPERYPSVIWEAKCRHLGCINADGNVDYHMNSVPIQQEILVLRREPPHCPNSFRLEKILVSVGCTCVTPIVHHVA
Nature of the data set: cell_activity; NIH3T3 IL-6 release. As to the method: First, human IL-17 and the aptamer produced in Example 1-1 were pre-incubated at 37° C. for 30 min, and added to NIH3T3 cell (ATCC, CRL1658) together with mouse TNFα (2 ng/mL). Then, after incubation for 24 hr, the culture supernatant was collected, and the amount of IL-6 was measured by BD Cytometric Bead Array (BD Biosciences). The IL-17 inhibitory action of each aptamer was determined from the amount of IL-6. For comparison with the aptamer of the present invention, a conventionally-known aptamer (aptamer No. 50) against IL-17 was used.

The target of data set [2] is T1, IL-17. Nature of the data set: SPR; IL-17R-Fc on chip. As for the experimental part:
Whether aptamers shown by aptamer Nos. 1-49 inhibit the binding of IL-17 and IL-17 receptor was evaluated by the surface plasmon resonance method.
For the measurement, BIAcore2000 manufactured by BIAcore was used. […] As an analyte, IL-17 (100 or 150 nM) and an aptamer (50 or 100 nM) shown by aptamer No. 1-49 were mixed, maintained for 15 min and after that the mixture was flown.
On the technique in general: In SPR one partner is held on a chip, and binding of the other changes the refractive index at the surface.

For the next data set, the target named is T2, IL-17 (IL-17A) (Homo sapiens, UniProt Q16552 Q16552:24-155).
T2 sequence: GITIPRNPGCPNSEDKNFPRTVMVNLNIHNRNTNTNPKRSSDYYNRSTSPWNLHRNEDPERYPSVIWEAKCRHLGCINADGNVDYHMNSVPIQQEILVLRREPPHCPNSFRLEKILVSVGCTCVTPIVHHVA
The experiment in a line: cell_activity; IL-6 release, NIH3T3. As to the method:
First, human IL-17 and the aptamer produced in Example 1-2 were pre-incubated at 37° C. for 30 min, and added to NIH3T3 cell (ATCC, CRL1658) together with mouse TNFα (2 ng/mL). Then, after incubation for 24 hr, the culture supernatant was collected, and the production amount of IL-6 was measured by ELISA method described below. The IL-17 inhibitory action of each aptamer was determined from the production amount of IL-6. For comparison with the aptamer of the present invention, a conventionally-known aptamer (aptamer No. 50) against IL-17 was used.
ELISA method for verifying IL-17 inhibitory action of aptamer: A microtiter plate for ELISA was coated with rat anti-mouse IL-6 antibody (BD Biosciences, 2 μg/mL; 100 μL/well) diluted with PBS, and incubated at 4° C. overnight. The next day, the microtiter plate was washed 3 times with PBS/0.05% Tween 20, and applied blocking with PBS/1% BSA (200 μL/well) at room temperature for 2 hr. Then, the plate was washed 3 times with PBS/0.05% Tween 20. Recombinant mouse IL-6 (BD Biosciences; 100 μL/well) serially diluted with PBS/1% BSA/0.05% Tween 20 or culture supernatants (100 μL/well) were added to the plate. After incubation at room temperature for 2 hr, the plate was washed 3 times with PBS/0.05% Tween 20. Then, 100 μL/well of biotin conjugated rat anti-mouse IL-6 antibody (BD Biosciences) was added to the plate at final dilution of 1/500, and the mixture was reacted at room temperature for 1 hr. After washing 3 times with PBS/0.05% Tween 20, 100 μL/well of alkaline phosphatase conjugated streptavidin was added at final dilution of 1/1000. After 30 min at room temperature, the plate was again washed 4 times with PBS/0.05% Tween 20, and a substrate (1-Step PNPP; Thermo Fisher Scientific Inc; 100 μL/well) was added. After 15 min, aqueous sodium hydroxide solution (2N: 50 μL/well) was added to stop the reaction, and the plate was read on a microtiter reader (Bio-Rad) by using a 405 nm filter.

B1: aptamer No. 1 (mixed)
RNA: GGGUAGCCGGAGGAGUCAGUAAUCGGUACCC
modifications: LNA (L), 2'-F (F), PS (S), mc methylcytosine as marked; SEQ ID NO:1 [LNA at 1-3,29-31 (29-31 methylcytosine); 2'-F at 4,7,8,16,17,20,23,24,27; PS at 6,9]
The molecule B1 yielded an IC50 with IL-17 [1] of 1.17 nM. The binding signal with IL-17 [2] is 28.6 % IL-17/IL-17R binding remaining.

B2: aptamer No. 77 (mixed)
RNA: GGGUAGCCGGAGGAGUCAGUAAUCGGUACCC
modifications: g(M)g(M)g(M)u(M)a(M)gc(M)c(M)gg(M)a(F)gg(M)a(M)gu(F)c(F)a(F)gu(F)a(M)a(M)u(M)c(M)g(M)g(M)u(F)Ac(M)c(M)c(M)
In turn, B2 showed an IC50 with IL-17 (IL-17A) of 4.66 nM.

B3: aptamer No. 72 (mixed)
RNA: GGGUAGCCGGAGGAGUCAGUAAUCGGUACCC
modifications: g(M)g(M)g(M)u(M)a(M)g(S)c(M)c(M)Gg(M)a(F)gg(M)a(M)gu(F)c(F)a(F)gu(F)a(M)a(M)u(M)c(M)g(M)g(M)u(M)a(M)c(M)c(M)c(M)
The molecule B3 came in with a half-inhibitory concentration (IC50) with IL-17 (IL-17A) of 2.24 nM.

B4: aptamer No. 86 (mixed)
mixed: GGGUAGCCGGAGGAGTCAGTGAUCGGUACCC
modifications: g(M)g(M)g(M)u(M)a(M)g(S)c(M)c(M)Gg(M)a(M)gg(M)a(M)g(S)Tc(M)a(F)g(S)Tg(M)a(M)u(M)c(M)g(M)g(M)u(M)a(M)c(M)c(M)c(M)
In the data set with IL-17 (IL-17A), B4 had an IC50 of 5.16 nM.

B5: aptamer No. 84 (mixed)
RNA: GGGUAGCCGGAGGAGUCAGUAAUCGGUACCC
modifications: g(M)g(M)g(M)u(M)a(M)g(S)c(M)c(M)Gg(M)a(M)gg(M)a(M)g(S)u(F)c(F)a(F)g(S)u(F)a(M)a(M)u(M)c(M)g(M)g(M)u(M)a(M)c(M)c(M)c(M)
In the data set with IL-17 (IL-17A), B5 displayed an IC50 of 1.04 nM.

B6: aptamer No. 73 (mixed)
RNA: GGGUAGCCGGAGGAGUCAGUAAUCGGUACCC
modifications: g(M)g(M)g(M)u(M)a(M)g(S)c(M)c(M)Gg(M)a(F)gg(M)a(M)g(S)u(F)c(F)a(F)g(S)u(F)a(M)a(M)u(M)c(M)g(M)g(M)u(M)a(M)c(M)c(M)c(M)
As to B6, it took 3.46 nM to reach half-maximal inhibition with IL-17 (IL-17A) (IC50).

B7: aptamer No. 69 (mixed)
RNA: GGGUAGCCGGAGGAGUCAGUAAUCGGUACCC
modifications: g(M)g(M)g(M)u(M)a(M)g(S)c(M)c(M)Gg(M)a(F)gg(M)a(M)gu(F)c(F)a(F)gu(F)a(M)a(M)u(M)c(M)g(M)g(M)u(F)a(M)c(M)c(M)c(M)
On to B7, for which the IC50 in the data set with IL-17 (IL-17A) stood at 1.73 nM.

B8: aptamer No. 9 (mixed)
mixed: GGGUAGCCGGAGGAGTCAGTAAUCGGUACCC
modifications: 2'-OMe (M), 2'-F (F), PS (S) as marked; uppercase DNA [1,2,3,4,6,7,8,10,11,13,14,17,18,21,22,23,24,25,26,27,28]
Turning to B8, the IC50 with IL-17 [1] came to 0.64 nM. For the same molecule, the binding signal in the data set with IL-17 [2] was 8.94 % IL-17/IL-17R binding remaining.

B9: aptamer No. 10 (mixed)
mixed: GGGUAGCCGGAGGAGTCAGTAAUCGGUACCC
modifications: 2'-OMe (M), 2'-F (F), PS (S) as marked; uppercase DNA [1,2,3,4,5,6,7,8,10,11,13,14,17,18,21,23,24,25,26,27]
The molecule B9 displayed an IC50 with IL-17 [1] of 0.63 nM. The binding signal in the data set with IL-17 [2] is 25.2 % IL-17/IL-17R binding remaining.

B10: aptamer No. 53 (mixed)
mixed: GGGUAGCCGGAGGAGTCAGTAAUCGGUACCC
modifications: g(M)g(M)g(M)u(M)Ag(S)c(M)c(M)Gg(M)a(F)gg(M)a(M)gTc(F)a(F)g(S)Ta(M)a(M)u(M)c(M)g(M)g(M)u(F)a(M)CCC
Consider B10, for which 1.67 nM corresponded to half-maximal inhibition with IL-17 (IL-17A) (IC50).

B11: aptamer No. 64 (mixed)
mixed: GGGUAGCCGGAGGAGTCAGTAAUCGGUACCC
modifications: g(M)g(M)g(M)u(M)a(M)g(S)c(M)c(M)Gg(M)a(F)gg(M)a(M)g(S)Tc(M)a(F)g(S)Ta(M)a(M)u(M)c(M)g(M)g(M)u(F)a(M)c(M)c(M)c(M)
Consider B11, for which, in the data set with IL-17 (IL-17A), the IC50 is 4.64 nM.

B12: aptamer No. 85 (mixed)
RNA: GGGUAGCCGGAGGAGUCAGUAAUCGGUACCC
modifications: g(M)g(M)g(M)u(M)a(M)g(S)c(M)c(M)Gg(M)a(M)gg(M)a(M)g(S)u(F)c(F)a(F)g(S)u(F)a(M)a(M)u(M)c(M)g(M)g(M)u(F)a(M)c(M)c(M)c(M)
Molecule B12 registered an IC50 in the data set with IL-17 (IL-17A) of 0.96 nM.

B13: aptamer No. 63 (mixed)
mixed: GGGUAGCCGGAGGAGTCAGTAAUCGGUACCC
modifications: g(M)g(M)g(M)u(M)a(M)g(S)c(M)c(M)Gg(M)a(F)gg(M)a(M)g(S)Tc(F)a(F)g(S)Ta(M)a(M)u(M)c(M)g(M)g(M)u(F)a(M)c(M)c(M)c(M)
Consider B13, for which the IC50 with IL-17 (IL-17A) stood at 0.81 nM.

B14: aptamer No. 93 (mixed)
RNA: GGGUAGCCGGAGGAGUCAGUAAUCGGUACCC
modifications: g(M)g(M)g(M)u(M)a(M)g(S)c(M)c(M)Gg(M)a(M)gg(M)a(M)g(S)u(F)c(F)a(F)g(S)u(F)a(M)au(M)c(M)g(M)g(M)u(F)a(M)c(M)c(M)c(M)
In the data set with IL-17 (IL-17A), B14 gave an IC50 of 0.22 nM.

B15: aptamer No. 66 (mixed)
mixed: GGGUAGCCGGAGGAGTCAGTAAUCGGUACCC
modifications: g(M)g(M)g(M)u(M)a(M)g(S)c(M)c(M)Gg(M)a(F)gg(M)a(M)g(S)Tc(F)a(F)g(S)Ta(M)a(M)u(M)c(M)g(M)g(M)u(M)a(M)c(M)c(M)c(M)
Take B15: half-maximal inhibition in the data set with IL-17 (IL-17A) (IC50) required 1.21 nM.

B16: aptamer No. 56 (mixed)
mixed: GGGUAGCCGGAGGAGTCAGTAAUCGGUACCC
modifications: g(M)g(M)g(M)u(M)Ag(S)c(M)c(M)Gg(M)a(F)gg(M)a(M)g(S)Tc(F)a(F)g(S)Ta(M)a(M)u(M)c(M)g(M)g(M)u(F)a(M)CCC
In the data set with IL-17 (IL-17A), B16 showed an IC50 of 0.52 nM.

B17: aptamer No. 92 (mixed)
RNA: GGGUAGCCGGAGGAGUCAGUAAUCGGUACCC
modifications: g(M)g(M)g(M)u(M)a(M)g(S)c(M)c(M)Gg(M)a(M)gg(M)a(M)g(S)u(F)c(F)a(F)g(S)u(F)aa(M)u(M)c(M)g(M)g(M)u(F)a(M)c(M)c(M)c(M)
On to B17, for which the IC50 in the data set with IL-17 (IL-17A) is 2.6 nM.

B18: aptamer No. 89 (mixed)
mixed: GGGUAGCCGGAGGAGTCAGTAAUCGGUACCC
modifications: g(M)g(M)g(M)u(M)a(M)g(S)c(M)c(M)Gg(M)a(M)gg(M)a(M)g(S)Tc(M)a(F)g(S)Taa(M)u(M)c(M)g(M)g(M)u(M)a(M)c(M)c(M)c(M)
For B18, the IC50 with IL-17 (IL-17A) was determined as 6.21 nM.

B19: aptamer No. 75 (mixed)
mixed: GGGUAGCCGGAGGAGTCAGTAAUCGGUACCC
modifications: g(M)g(M)g(M)u(M)a(M)gc(M)c(M)gg(M)a(F)gg(M)a(M)gTc(F)a(F)gTa(M)a(M)u(M)c(M)g(M)g(M)u(F)a(M)c(M)c(M)c(M)
In the case of B19, the IC50 in the data set with IL-17 (IL-17A) worked out at 1.33 nM.

B20: aptamer No. 81 (mixed)
mixed: GGGUAGCCGGAGGAGTCAGTAAUCGGUACCC
modifications: g(M)g(M)g(M)u(M)a(M)g(S)c(M)c(M)Gg(M)a(M)gg(M)a(M)g(S)Tc(M)a(F)g(S)Ta(M)a(M)u(M)c(M)g(M)g(M)u(M)a(M)c(M)c(M)c(M)
B20 returned an IC50 with IL-17 (IL-17A) of 2.26 nM.

B21: aptamer No. 7 (mixed)
RNA: GGGUAGCCGGAGGAGUCAGUAAUCGGUACCC
modifications: 2'-OMe (M), 2'-F (F), PS (S) as marked; uppercase DNA [1,2,3,4,6,7,8,10,11,13,14,16,17,18,20,23,24,25,26,27,28]
In the data set with IL-17 [1], B21 registered an IC50 of 0.3 nM. Further, the binding signal with IL-17 [2] is 18.4 % IL-17/IL-17R binding remaining.

The IC50 is the concentration at which inhibition is half-maximal.

These data come from patent publication US20160046944, “APTAMER TO IL-17 AND USE THEREOF” (THE UNIVERSITY OF TOKYO, published 2016).
